In the supplement of paper PMC9233669:
Fewer inactive variants are shown than the library holds.

Columns and labels:
biotinyl-Phe-oxazolone = experiment: self-aminoacylation, catalytic enhancement (BFO) (fold over background); higher = more active; k-Seq, kA / k0A0; sequences stand for … in GGGAAUGGAUCCACAUCUACGAAUUC…UUCACUGCAGACUUGACGAAGCUG
Summary of the method: (§1)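 Catalytic enhancement equals the median kA over the uncatalyzed rate, the latter read from the low-activity peak of a bimodal Gaussian fit. Values of kA came from fitting each sequence's fraction reacted to a pseudo-first-order model, with 1000 bootstraps. Reacted RNA was captured with streptavidin and quantified by triplicate qPCR and Illumina sequencing after 90 minutes at room temperature with 2–1250 μM biotinyl-aminoacyl-oxazolone and 0.43 μM mutagenized RNA pools bearing a 21-nt variable region.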

biotinyl-Ile-oxazolone = experiment: self-aminoacylation, catalytic enhancement (BIO) (fold over background); higher = more active; k-Seq, kA / k0A0; sequences stand for … in GGGAAUGGAUCCACAUCUACGAAUUC…UUCACUGCAGACUUGACGAAGCUG
Summary of the method: as §1

biotinyl-Met-oxazolone = experiment: self-aminoacylation, catalytic enhancement (BMO) (fold over background); higher = more active; k-Seq, kA / k0A0; sequences stand for … in GGGAAUGGAUCCACAUCUACGAAUUC…UUCACUGCAGACUUGACGAAGCUG
Summary of the method: as §1

biotinyl-Leu-oxazolone = experiment: self-aminoacylation, catalytic enhancement (BLO) (fold over background); higher = more active; k-Seq, kA / k0A0; sequences stand for … in GGGAAUGGAUCCACAUCUACGAAUUC…UUCACUGCAGACUUGACGAAGCUG
Summary of the method: as §1

biotinyl-Trp-oxazolone = experiment: self-aminoacylation, catalytic enhancement (BWO) (fold over background); higher = more active; k-Seq, kA / k0A0; sequences stand for … in GGGAAUGGAUCCACAUCUACGAAUUC…UUCACUGCAGACUUGACGAAGCUG
Summary of the method: as §1

biotinyl-Val-oxazolone = experiment: self-aminoacylation, catalytic enhancement (BVO) (fold over background); higher = more active; k-Seq, kA / k0A0; sequences stand for … in GGGAAUGGAUCCACAUCUACGAAUUC…UUCACUGCAGACUUGACGAAGCUG
Summary of the method: as §1

| Sequence | self-aminoacylation (biotinyl-Phe-oxazolone) | self-aminoacylation (biotinyl-Ile-oxazolone) | self-aminoacylation (biotinyl-Met-oxazolone) | self-aminoacylation (biotinyl-Leu-oxazolone) | self-aminoacylation (biotinyl-Trp-oxazolone) | self-aminoacylation (biotinyl-Val-oxazolone) |
| --- | --- | --- | --- | --- | --- | --- |
| AUUGCCCUGGUCAUCGCGUGA [Fam2.1 aminoacylation ribozyme variant] | 157 | 9.62 | 23.1 | 26.3 | 23.6 | 12 |
| ACUACCAUGGUCAUCGAGUGA [Fam2.1 aminoacylation ribozyme variant] | 34.8 | 4.61 | 6.31 | 7.97 | 9.5 | 4.53 |
| CCACACUGCAAGCAUUCGGUC [Fam1B.1 aminoacylation ribozyme variant] | 8.26 | 2.37 | 2.04 | 2.58 | 3.51 | 2.96 |
| AAGUUUGCUAAUAGUCGGCAG [Fam3.1 aminoacylation ribozyme variant] | 1.3 | 0.923 | 0.98 | 0.983 | 1.28 | 0.785 |
| AUUCACCAAGGUCAUCUGGUG [Fam2.2 aminoacylation ribozyme variant] | 28 | 2.38 | 3.53 | 5.5 | 3.52 | 2.29 |
| AACUUUGCUAAAAGUCGCAAG [Fam3.1 aminoacylation ribozyme variant] | 6.96 | 3.11 | 2.47 | 2.98 | 4.13 | 2.54 |
| CCACACUUGAAGCAAUCGGAC [Fam1B.1 aminoacylation ribozyme variant] | 0.658 | 0.951 | 0.961 | 0.869 | 0.769 | 1.18 |
| AUUCUCGUAGGUCAUCGGGUG [Fam2.2 aminoacylation ribozyme variant] | 77.6 | 6.47 | 11.3 | 12.2 | 9.21 | 7.51 |
| CACCACUUCAAGCAAUCGGUC [Fam1B.1 aminoacylation ribozyme variant] | 40.5 | 1.11 | 1.33 | 1.83 | 21.8 | 1.28 |
| CUACUUCCAACAAUCGGUCUA [Fam1A.1 aminoacylation ribozyme variant] | 0.924 | 0.839 | 0.632 | 0.701 | 0.598 | 0.892 |
| CUACCUCACACAAUCGGUCUG [Fam1A.1 aminoacylation ribozyme variant] | 1.81 | 0.861 | 0.672 | 0.988 | 0.744 | 1.06 |
| AUUACCCCGGCCAUCGAGUGA [Fam2.1 aminoacylation ribozyme variant] | 20.7 | 2.68 | 4.03 | 5.86 | 5.24 | 4.34 |
| AACUUUGCUAAUAGUCUCAAG [Fam3.1 aminoacylation ribozyme variant] | 3.43 | 1.47 | 1.39 | 1.54 | 1.5 | 1.42 |
| AUUACCCUGGUCACCGAGCGA [Fam2.1 aminoacylation ribozyme variant] | 0.94 | 1.16 | 2.08 | 1.54 | 0.843 | 1.25 |
| AAGUUUGUUAAUAGUCCCAAG [Fam3.1 aminoacylation ribozyme variant] | 1.12 | 0.846 | 0.751 | 0.775 | 0.847 | 0.884 |
| CUACUUCACACAAUCGGACUG [Fam1A.1 aminoacylation ribozyme variant] | 0.755 | 0.882 | 0.609 | 0.673 | 0.442 | 0.736 |
| AGGUUGGCUAAUAGUCGCAAG [Fam3.1 aminoacylation ribozyme variant] | 2.19 | 1.74 | 1.97 | 1.88 | 2.29 | 1.7 |
| AUUAGCCUGGUCAUCGAGUAA [Fam2.1 aminoacylation ribozyme variant] | 1.85 | 1.52 | 1.31 | 1.57 | 0.949 | 1.51 |
| CUACUUCACACAAUCGGUGUG [Fam1A.1 aminoacylation ribozyme variant] | 0.67 | 1.07 | 1.65 | 1.22 | 0.513 | 1.25 |
| AUUCACCUAUGUAAUCGGGUG [Fam2.2 aminoacylation ribozyme variant] | 36.4 | 3.11 | 5.17 | 7.44 | 5.74 | 2.91 |
| CCACACUUUAGGCAAUCGGUC [Fam1B.1 aminoacylation ribozyme variant] | 0.648 | 1.12 | 0.96 | 0.831 | 0.713 | 1.01 |
| CUACUUCAACCAAUCUGUCUG [Fam1A.1 aminoacylation ribozyme variant] | 2.12 | 0.597 | 0.504 | 0.485 | 0.777 | 0.592 |
| AGUCACCUAAGUCAUCGGGUG [Fam2.2 aminoacylation ribozyme variant] | 69.3 | 4.94 | 6.86 | 6.89 | 6.74 | 4.5 |
| AUACACCUAGGUCUUCGGGUG [Fam2.2 aminoacylation ribozyme variant] | 23.2 | 2.7 | 2.71 | 3.72 | 2.64 | 3.04 |
| AUUACCCCGGUAAUCGAGUGA [Fam2.1 aminoacylation ribozyme variant] | 26.7 | 2.73 | 5.18 | 4.59 | 5.41 | 2.85 |
| CCACACUUCAAGCAACGGGUC [Fam1B.1 aminoacylation ribozyme variant] | 0.777 | 0.624 | 0.626 | 0.569 | 0.464 | 0.81 |

| Sequence | self-aminoacylation (biotinyl-Phe-oxazolone) | self-aminoacylation (biotinyl-Ile-oxazolone) | self-aminoacylation (biotinyl-Met-oxazolone) | self-aminoacylation (biotinyl-Leu-oxazolone) | self-aminoacylation (biotinyl-Trp-oxazolone) | self-aminoacylation (biotinyl-Val-oxazolone) |
| --- | --- | --- | --- | --- | --- | --- |
| AGUCACCUAGGUGAUCGGGUG [Fam2.2 aminoacylation ribozyme variant] | 24.3 | 4.34 | 4.24 | 5.45 | 6.05 | 4.38 |
| AUUCACCUAGUUCAUCUGGUG [Fam2.2 aminoacylation ribozyme variant] | 10.4 | 1.56 | 1.88 | 2.44 | 2.4 | 1.5 |
| AUUGCCCUGGUCUUCGAGUGA [Fam2.1 aminoacylation ribozyme variant] | 47.1 | 3.44 | 6.57 | 6.8 | 8.03 | 3.96 |
| AUUACCCUGGUCUUCGAGCGA [Fam2.1 aminoacylation ribozyme variant] | 0.753 | 0.901 | 1.09 | 1.11 | 1.16 | 1.23 |
| CCACGCUUCAAUCAAUCGGUC [Fam1B.1 aminoacylation ribozyme variant] | 30.8 | 1.01 | 0.865 | 1.34 | 20 | 1.18 |
| AUUCCCCUGCUCAUCGAGUGA [Fam2.1 aminoacylation ribozyme variant] | 2.12 | 1.54 | 1.53 | 1.89 | 1.06 | 1.51 |
| CCUCACUUCAAGCAUUCGGUC [Fam1B.1 aminoacylation ribozyme variant] | 1.36 | 1.3 | 1.14 | 1.16 | 1.37 | 1.43 |
| CUACUUCAAACAAUCGAUCUC [Fam1A.1 aminoacylation ribozyme variant] | 2.76 | 0.502 | 0.322 | 0.5 | 0.881 | 0.799 |
| AUUCAUCUAGGUCAUCGAGUG [Fam2.2 aminoacylation ribozyme variant] | 4.08 | 2.63 | 3.88 | 4.86 | 3.67 | 2.38 |
| CUACUUCAAUCAAUCGGGCUG [Fam1A.1 aminoacylation ribozyme variant] | 8.36 | 1.41 | 1.31 | 1.38 | 7.13 | 1.24 |
| CUACUUCAAGCAAUGGGUCUG [Fam1A.1 aminoacylation ribozyme variant] | 0.863 | 1.02 | 0.934 | 0.852 | 1.09 | 0.998 |
| AUUACCCUGGACAACGAGUGA [Fam2.1 aminoacylation ribozyme variant] | 59.1 | 3.88 | 8.65 | 8.43 | 9.2 | 3.76 |
| CCACACUUCAUGCUAUCGGUC [Fam1B.1 aminoacylation ribozyme variant] | 0.838 | 0.834 | 0.626 | 0.69 | 0.714 | 0.931 |
| AAGUUUGCGAAUAGUCGGAAG [Fam3.1 aminoacylation ribozyme variant] | 0.764 | 0.977 | 1.38 | 1.1 | 2.32 | 0.964 |
| CGACACUUCAAGCAAUCGCUC [Fam1B.1 aminoacylation ribozyme variant] | 2.06 | 2.1 | 1.64 | 2.26 | 2.2 | 1.96 |
| CUACUUCAAACAAUCCGUAUG [Fam1A.1 aminoacylation ribozyme variant] | 0.759 | 0.723 | 0.65 | 0.769 | 0.715 | 0.81 |
| AUUCACUUCGGUCAUCGGGUG [Fam2.2 aminoacylation ribozyme variant] | 55.8 | 5.12 | 7.48 | 10.1 | 7.68 | 5.73 |
| AUUUACCUAGGUCAUCGGGCG [Fam2.2 aminoacylation ribozyme variant] | 3.65 | 2.57 | 3.93 | 4.32 | 3.25 | 3 |
| AUUACCCACGUCAUCGAGUGA [Fam2.1 aminoacylation ribozyme variant] | 15.6 | 2.46 | 4.44 | 4.38 | 4.53 | 2.9 |
| AUUCACCUAGUUCCUCGGGUG [Fam2.2 aminoacylation ribozyme variant] | 19.7 | 2.06 | 2.42 | 3.31 | 2.63 | 2.06 |
| AAGUUUGCAAAUAGUCGCAAC [Fam3.1 aminoacylation ribozyme variant] | 0.731 | 0.917 | 1.07 | 1.01 | 1.01 | 0.838 |
| AUUCAGCUAGGUCAUCGGGUU [Fam2.2 aminoacylation ribozyme variant] | 18.7 | 2.81 | 3.1 | 2.5 | 3.38 | 2.79 |
| AAGUUUGCCAAUAGUCGCUAG [Fam3.1 aminoacylation ribozyme variant] | 0.897 | 1.15 | 0.716 | 0.951 | 2.08 | 0.926 |
| AUUCACCUAGGUCUUCCGGUG [Fam2.2 aminoacylation ribozyme variant] | 99.3 | 7.6 | 11.2 | 17.2 | 12.2 | 7 |
| CCCCACAUCAAGCAAUCGGUC [Fam1B.1 aminoacylation ribozyme variant] | 3.1 | 1.67 | 1.22 | 1.63 | 2.47 | 1.5 |
